Test results taken from patent US20110142868A1 (CHIRALIX B V, published 2011).
Numbered stars: 1 amine (or outer) side, 2 acyl side, 3 side chain; on linkers, the order of the positions; unused ones are H or OH. Square brackets hold non-standard residues; d marks the D form. * marks the point of attachment. Orn(CA) = ornithine chloroamidine, O(CA), N=C(CCl)NCCC[C@H](N[*:1])C(=O)[*:2]; Orn(fluoroacetimidoyl) = N=C(CF)NCCC[C@H](N)C(=O)O; 2Naphthylsulfonyl = O=S(=O)(c1ccc2ccccc2c1)*; AEEA = NCCOCCOCC(=O)O

Legend:
Assay in all cases: cell-based or functional assay
[1] = target: T1, recombinant human PAD2 (human, UniProt Q9Y2J8 1-665)
[2] = target: T2, recombinant human PAD4 (human, UniProt Q9UM07 1-663)
[3] = target: T2, recombinant human PAD4; remark: listed apart in the source
[4] = target: T1, recombinant human PAD2; remark: listed apart in the source

T2 sequence (Q9UM07 whole entry): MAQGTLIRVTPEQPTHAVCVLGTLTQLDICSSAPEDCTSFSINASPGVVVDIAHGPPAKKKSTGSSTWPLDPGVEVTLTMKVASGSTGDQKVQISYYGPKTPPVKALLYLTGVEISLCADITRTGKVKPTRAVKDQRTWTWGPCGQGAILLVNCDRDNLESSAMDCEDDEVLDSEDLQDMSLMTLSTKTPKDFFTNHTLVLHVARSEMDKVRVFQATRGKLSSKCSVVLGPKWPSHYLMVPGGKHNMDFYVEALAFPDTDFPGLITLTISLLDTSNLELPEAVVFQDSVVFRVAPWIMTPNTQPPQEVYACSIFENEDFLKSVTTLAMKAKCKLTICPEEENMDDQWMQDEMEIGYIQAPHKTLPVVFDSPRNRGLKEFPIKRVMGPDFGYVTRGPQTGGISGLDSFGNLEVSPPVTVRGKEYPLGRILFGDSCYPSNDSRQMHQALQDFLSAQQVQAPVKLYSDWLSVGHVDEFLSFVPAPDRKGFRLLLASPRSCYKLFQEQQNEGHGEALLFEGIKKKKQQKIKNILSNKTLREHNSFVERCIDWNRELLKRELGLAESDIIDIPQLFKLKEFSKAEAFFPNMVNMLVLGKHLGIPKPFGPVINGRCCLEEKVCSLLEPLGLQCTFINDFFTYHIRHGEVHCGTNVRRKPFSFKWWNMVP
T1 sequence (Q9Y2J8 whole entry): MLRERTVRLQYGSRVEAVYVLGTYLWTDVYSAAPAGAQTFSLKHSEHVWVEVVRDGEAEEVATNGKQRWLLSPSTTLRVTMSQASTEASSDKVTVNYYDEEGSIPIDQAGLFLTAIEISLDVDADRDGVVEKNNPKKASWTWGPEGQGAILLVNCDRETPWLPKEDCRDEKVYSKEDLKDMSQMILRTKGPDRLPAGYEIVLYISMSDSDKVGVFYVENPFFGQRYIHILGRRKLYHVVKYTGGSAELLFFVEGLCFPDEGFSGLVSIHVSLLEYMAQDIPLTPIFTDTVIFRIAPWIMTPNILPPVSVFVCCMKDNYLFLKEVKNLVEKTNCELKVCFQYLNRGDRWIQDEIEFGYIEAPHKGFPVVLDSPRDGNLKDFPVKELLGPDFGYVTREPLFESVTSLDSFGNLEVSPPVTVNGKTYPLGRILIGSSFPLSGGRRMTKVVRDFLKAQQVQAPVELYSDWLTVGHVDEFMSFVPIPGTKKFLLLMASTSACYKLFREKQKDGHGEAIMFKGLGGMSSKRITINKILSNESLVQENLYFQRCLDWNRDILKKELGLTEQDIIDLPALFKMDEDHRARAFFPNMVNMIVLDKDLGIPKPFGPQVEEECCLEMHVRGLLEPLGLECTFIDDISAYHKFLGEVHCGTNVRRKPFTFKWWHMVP

2Naphthylsulfonyl-KFD[Orn(fluoroacetimidoyl)]DFI-NH2 [0837-29FA]
Inhibition of PAD2: value at 10 µM inhibitor (0 µM: 74) [1]: 16% | Inhibition of PAD2: value at 20 µM inhibitor (0 µM: 74) [1]: 9% | Inhibition of PAD2: value at 40 µM inhibitor (0 µM: 74) [1]: 5% | Inhibition of PAD2: value at 80 µM inhibitor (0 µM: 74) [1]: 2% | Inhibition of PAD4: value at 10 µM inhibitor (0 µM: 71) [2]: 33% | Inhibition of PAD4: value at 20 µM inhibitor (0 µM: 71) [2]: 16% | Inhibition of PAD4: value at 40 µM inhibitor (0 µM: 71) [2]: 10% | Inhibition of PAD4: value at 80 µM inhibitor (0 µM: 71) [2]: 5%

B1: 0837-13FA (peptide)
peptide: Ac-KFD[Orn(fluoroacetimidoyl)]DFI[AEEA]-NH2
SMILES: CC[C@H](C)[C@H](NC(=O)[C@H](Cc1ccccc1)NC(=O)[C@H](CC(=O)O)NC(=O)[C@H](CCCNC(=N)CF)NC(=O)[C@H](CC(=O)O)NC(=O)[C@H](Cc1ccccc1)NC(=O)[C@H](CCCCN)NC(C)=O)C(=O)NCCOCCOCC(N)=O
Inhibition of PAD2: value at 10 µM inhibitor (0 µM: 74) [1]: 43% | Inhibition of PAD2: value at 20 µM inhibitor (0 µM: 74) [1]: 30% | Inhibition of PAD2: value at 40 µM inhibitor (0 µM: 74) [1]: 20% | Inhibition of PAD2: value at 80 µM inhibitor (0 µM: 74) [1]: 11% | Inhibition of PAD4: value at 10 µM inhibitor (0 µM: 71) [2]: 48% | Inhibition of PAD4: value at 20 µM inhibitor (0 µM: 71) [2]: 33% | Inhibition of PAD4: value at 40 µM inhibitor (0 µM: 71) [2]: 23% | Inhibition of PAD4: value at 80 µM inhibitor (0 µM: 71) [2]: 16%

B2: 0837-28FA (peptide)
peptide: 2Naphthylsulfonyl-KWH[Orn(fluoroacetimidoyl)]DFF[AEEA]-NH2
SMILES: N=C(CF)NCCC[C@H](NC(=O)[C@H](Cc1c[nH]cn1)NC(=O)[C@H](Cc1c[nH]c2ccccc12)NC(=O)[C@H](CCCCN)NS(=O)(=O)c1ccc2ccccc2c1)C(=O)N[C@@H](CC(=O)O)C(=O)N[C@@H](Cc1ccccc1)C(=O)N[C@@H](Cc1ccccc1)C(=O)NCCOCCOCC(N)=O
Inhibition of PAD2: value at 10 µM inhibitor (0 µM: 76) [1]: 17% | Inhibition of PAD2: value at 20 µM inhibitor (0 µM: 76) [1]: 8% | Inhibition of PAD2: value at 40 µM inhibitor (0 µM: 76) [1]: 4% | Inhibition of PAD2: value at 80 µM inhibitor (0 µM: 76) [1]: 2% | Inhibition of PAD4: value at 10 µM inhibitor (0 µM: 67) [2]: 37% | Inhibition of PAD4: value at 20 µM inhibitor (0 µM: 67) [2]: 23% | Inhibition of PAD4: value at 40 µM inhibitor (0 µM: 67) [2]: 17% | Inhibition of PAD4: value at 80 µM inhibitor (0 µM: 67) [2]: 9%

B3: 0837-27FA (peptide)
peptide: 2Naphthylsulfonyl-KFD[Orn(fluoroacetimidoyl)]DFI[AEEA]-NH2
SMILES: CC[C@H](C)[C@H](NC(=O)[C@H](Cc1ccccc1)NC(=O)[C@H](CC(=O)O)NC(=O)[C@H](CCCNC(=N)CF)NC(=O)[C@H](CC(=O)O)NC(=O)[C@H](Cc1ccccc1)NC(=O)[C@H](CCCCN)NS(=O)(=O)c1ccc2ccccc2c1)C(=O)NCCOCCOCC(N)=O
Inhibition of PAD2: value at 10 µM inhibitor (0 µM: 74) [1]: 24% | Inhibition of PAD2: value at 20 µM inhibitor (0 µM: 74) [1]: 14% | Inhibition of PAD2: value at 40 µM inhibitor (0 µM: 74) [1]: 7% | Inhibition of PAD2: value at 80 µM inhibitor (0 µM: 74) [1]: 4% | Inhibition of PAD4: value at 10 µM inhibitor (0 µM: 71) [2]: 35% | Inhibition of PAD4: value at 20 µM inhibitor (0 µM: 71) [2]: 20% | Inhibition of PAD4: value at 40 µM inhibitor (0 µM: 71) [2]: 12% | Inhibition of PAD4: value at 80 µM inhibitor (0 µM: 71) [2]: 7%

B4: 0741-03FA (peptide)
peptide: Ac-FFDSHKFD[Orn(fluoroacetimidoyl)]DFIYSD-NH2
SMILES: CC[C@H](C)[C@H](NC(=O)[C@H](Cc1ccccc1)NC(=O)[C@H](CC(=O)O)NC(=O)[C@H](CCCNC(=N)CF)NC(=O)[C@H](CC(=O)O)NC(=O)[C@H](Cc1ccccc1)NC(=O)[C@H](CCCCN)NC(=O)[C@H](Cc1c[nH]cn1)NC(=O)[C@H](CO)NC(=O)[C@H](CC(=O)O)NC(=O)[C@H](Cc1ccccc1)NC(=O)[C@H](Cc1ccccc1)NC(C)=O)C(=O)N[C@@H](Cc1ccc(O)cc1)C(=O)N[C@@H](CO)C(=O)N[C@@H](CC(=O)O)C(N)=O
conversion of 0708-30 by PAD4, 10 µM inhibitor [3]: 45% | conversion of 0708-30 by PAD4, 50 µM inhibitor [3]: 12% | conversion of 0708-30 by PAD4, 100 µM inhibitor [3]: 9% | conversion of 0708-30 by PAD2, 10 µM inhibitor [4]: 39% | conversion of 0708-30 by PAD2, 50 µM inhibitor [4]: 13% | conversion of 0708-30 by PAD2, 100 µM inhibitor [4]: 6%

B5: 0741-06CA (peptide)
peptide: Ac-DSKKHD[Orn(CA)]DFLYSD-NH2
SMILES: CC(=O)N[C@@H](CC(=O)O)C(=O)N[C@@H](CO)C(=O)N[C@@H](CCCCN)C(=O)N[C@@H](CCCCN)C(=O)N[C@@H](Cc1c[nH]cn1)C(=O)N[C@@H](CC(=O)O)C(=O)N[C@@H](CCCNC(=N)CCl)C(=O)N[C@@H](CC(=O)O)C(=O)N[C@@H](Cc1ccccc1)C(=O)N[C@@H](CC(C)C)C(=O)N[C@@H](Cc1ccc(O)cc1)C(=O)N[C@@H](CO)C(=O)N[C@@H](CC(=O)O)C(N)=O
conversion of 0708-30 by PAD4, 10 µM inhibitor [3]: 74% | conversion of 0708-30 by PAD4, 50 µM inhibitor [3]: 64% | conversion of 0708-30 by PAD4, 100 µM inhibitor [3]: 50% | conversion of 0708-30 by PAD2, 10 µM inhibitor [4]: 63% | conversion of 0708-30 by PAD2, 50 µM inhibitor [4]: 45% | conversion of 0708-30 by PAD2, 100 µM inhibitor [4]: 48%

B6: 0741-02FA (peptide)
peptide: Ac-FFDSHKWH[Orn(fluoroacetimidoyl)]DFFYSD-NH2
SMILES: CC(=O)N[C@@H](Cc1ccccc1)C(=O)N[C@@H](Cc1ccccc1)C(=O)N[C@@H](CC(=O)O)C(=O)N[C@@H](CO)C(=O)N[C@@H](Cc1c[nH]cn1)C(=O)N[C@@H](CCCCN)C(=O)N[C@@H](Cc1c[nH]c2ccccc12)C(=O)N[C@@H](Cc1c[nH]cn1)C(=O)N[C@@H](CCCNC(=N)CF)C(=O)N[C@@H](CC(=O)O)C(=O)N[C@@H](Cc1ccccc1)C(=O)N[C@@H](Cc1ccccc1)C(=O)N[C@@H](Cc1ccc(O)cc1)C(=O)N[C@@H](CO)C(=O)N[C@@H](CC(=O)O)C(N)=O
conversion of 0708-30 by PAD4, 10 µM inhibitor [3]: 50% | conversion of 0708-30 by PAD4, 50 µM inhibitor [3]: 20% | conversion of 0708-30 by PAD4, 100 µM inhibitor [3]: 16% | conversion of 0708-30 by PAD2, 10 µM inhibitor [4]: 52% | conversion of 0708-30 by PAD2, 50 µM inhibitor [4]: 17% | conversion of 0708-30 by PAD2, 100 µM inhibitor [4]: 7%

B7: 0741-05CA (peptide)
peptide: Ac-DSHKFD[Orn(CA)]DFIYSD-NH2
SMILES: CC[C@H](C)[C@H](NC(=O)[C@H](Cc1ccccc1)NC(=O)[C@H](CC(=O)O)NC(=O)[C@H](CCCNC(=N)CCl)NC(=O)[C@H](CC(=O)O)NC(=O)[C@H](Cc1ccccc1)NC(=O)[C@H](CCCCN)NC(=O)[C@H](Cc1c[nH]cn1)NC(=O)[C@H](CO)NC(=O)[C@H](CC(=O)O)NC(C)=O)C(=O)N[C@@H](Cc1ccc(O)cc1)C(=O)N[C@@H](CO)C(=O)N[C@@H](CC(=O)O)C(N)=O
conversion of 0708-30 by PAD4, 10 µM inhibitor [3]: 74% | conversion of 0708-30 by PAD4, 50 µM inhibitor [3]: 34% | conversion of 0708-30 by PAD4, 100 µM inhibitor [3]: 25% | conversion of 0708-30 by PAD2, 10 µM inhibitor [4]: 62% | conversion of 0708-30 by PAD2, 50 µM inhibitor [4]: 44% | conversion of 0708-30 by PAD2, 100 µM inhibitor [4]: 31%

B8: 0837-14FA (peptide)
peptide: Ac-KWH[Orn(fluoroacetimidoyl)]DFF[AEEA]-NH2
SMILES: CC(=O)N[C@@H](CCCCN)C(=O)N[C@@H](Cc1c[nH]c2ccccc12)C(=O)N[C@@H](Cc1c[nH]cn1)C(=O)N[C@@H](CCCNC(=N)CF)C(=O)N[C@@H](CC(=O)O)C(=O)N[C@@H](Cc1ccccc1)C(=O)N[C@@H](Cc1ccccc1)C(=O)NCCOCCOCC(N)=O
Inhibition of PAD2: value at 10 µM inhibitor (0 µM: 76) [1]: 38% | Inhibition of PAD2: value at 20 µM inhibitor (0 µM: 76) [1]: 24% | Inhibition of PAD2: value at 40 µM inhibitor (0 µM: 76) [1]: 14% | Inhibition of PAD2: value at 80 µM inhibitor (0 µM: 76) [1]: 8% | Inhibition of PAD4: value at 10 µM inhibitor (0 µM: 67) [2]: 54% | Inhibition of PAD4: value at 20 µM inhibitor (0 µM: 67) [2]: 39% | Inhibition of PAD4: value at 40 µM inhibitor (0 µM: 67) [2]: 29% | Inhibition of PAD4: value at 80 µM inhibitor (0 µM: 67) [2]: 21%
